Among the data in a protein production outcome set (Wang et al. 2014) are protein production values, retold here.
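Further: failed if final PepcDB status was selected cloned or expressed and not failed if soluble or beyond.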

This data set is described as follows: label from the status in PepcDB records.
In the case of “MKKLLTKGQIAILVIFSVLIIDQVIKIWIKTHMYWHESIRITDWFYIYFTENNGMAFGMELFGKLFLTTFRIVAVGLIGWYLYKIVKRGLKTGYIICVSLILTGALGNIIDSVFYGVIFNESTHSQIASFMPDGGGYSTWFYGKVVDMFYFPIIDTNWPTWMPFVGGEHFIFFSPIFNFADAAISCGIIALLLFYSKYLNDSYHHSVTKK”, the protein production entry is “failed”.

With “MSLTPTVMVVDESRITFLAVKNALEKDGFNVIWAKNEQEAFTFLRREKIDLVFVDVFEGEESLNLIRRIREEFPDTKVAVLSAYVDKDLIINSVKAGAVDYILKPFRLDYLLERVKKIISSTPRVTVSLRKNIEEGHHHHHH”, the protein production result is listed as “not failed”. As for “MVVETIERSCEGSKRRHVNGGDIAVPCSGEECSNGDINVAPGVSAKRARVSREMTFEDIYGADALLNDDDDEDDDCDWEPVQAPMEFVKWCCVNCTMSNPGDMVHCCICGEHKESGILRHGYLASPFFKDTGLIEVEEKYGGSSSATSSTAVGFDERMLLHSEFEVKAQPHPERPDRLRAIAASLATAGVFPGRCLPINAREITKQELQMVHTSEHVDAVDTTSQLLYSYFTSDTYANEYSARAARLAAGLCADLATDIFTGRVKNGFALVRPPGHHAGVRHAMGFCLHNNAAVAALVAQAAGAKKVLIVDWDVHHGNGTQEIFEQNKSVLYISLHRHEGGNFYPGTGAADEVGSNGGEGYCVNVPWSCGGVGDKDYIFAFQHVVLPIASAFSPDFVIISAGFDAARGDPLGCCDVTPAGYSRMTQMLGDLCGGKMLVILEGGYNLRSISASATAVIKVLLGENPENELPIATTPSVAGLQTVLDVLNIQLEFWPSLAISYSKLLSELEARLIENKSEKSDEKEGCSGSDMVEMGTKEAFVQLSLGSYDFKIKVILESILPNPS”, the protein production result is “failed”.

Regarding “MAVAALLPQRPTSLEISMEGETFLWLIRHAPVDGVAGTIHAPDAPADLGDRAQLQALRQRLPRDSASYASPSRRTVETARALGLEPDLVGNFSEQDFGDWTGRRHDELAASGGEAYAQFWGDPAHARPPGGESFEDQVARVRHGLSRIGAGPATLVVHSGTIRAALCIALDLAPQSALRFVIDPLSLTRIDRLATGWRVVSVNQRVV”, the protein production result is on record as “failed”. “MRMKRFLTIVQILLVVIIIIFGYKIVQTYIEDKQERANYEKLQQKFQMLMSKHQEHVRPQFESLEKINKDIVGWIKLSGTSLNYPVLQGKTNHDYLNLDFEREHRRKGSIFMDFRNELKNLNHNTILYGHHVGDNTMFDVLEDYLKQSFYEKHKIIEFDNKYGKYQLQVFSAYKTTTKDNYIRTDFENDQDYQQFLDETKRKSVINSDVNVTVKDKIMTLSTCEDAYSETTKRIVVVAKIIKVS”: the protein production result is recorded as “not failed”. As for “IESIPMPILYKNMEGSYLGCNSKFLELSGKSREEVIGFRVGDLLDKKSAMEIEECERHLKEKGECPSHDIRFVDHRGEECFIRVYKTLLTNNFDEPVGILGFFVDMS”, the protein production entry was “failed”.

For the sequence “MKYLASFRTTLKASRYMFRALALVLWLLIAFSSVFYIVNALHQRESEIRQEFNLSSDQAQRFIQRTSDVMKELKYIAENRLSAENGVLSPRGRETQADVPAFEPLFADSDCSAMSNTWRGSLESLAWFMRYWRDNFSAAYDLNRVFLIGSDNLCMANFGLRDMPVERDTALKALHERINKYRNAPQDDSGSNLYWISEGPRPCVGYFYALTPVYLANRLQALLGVEQTIRMENFFLPGTLPMGVTILDENGHTLISLTGPESKIKGDPRWMQERSWFGYTEGFRELVLKKNLPPSSLSIVYSVPVDKVLERIRMLILNAILLNVLAGAALFTLARMYERRIFIPAESDALRLEEHEQFNRKIVASAPVGICILRTADGVNILSNELAHTYLNMLTHEDRQRLTQIICGQQVNFVDVLTSNNTNLQISFVHSRYRNENVAICVLVDVSSRVKMEESLQEMAQAAEQASQSKSMFLATVSHELRTPLYGIIGNLDLLQTKELPKGVDRLVTAMNNSSSLLLKIISDILDFSKIESEQLKIEPREFSPREVMNHITANYLPLVVRKQLGLYCFIEPDVPVALNGDPMRLQQVISNLLSNAIKFTDTGCIVLHVRADGDYLSIRVRDTGVGIPAKEVVRLFDPFFQVGTGVQRNFQGTGLGLAICEKLISMMDGDISVDSEPGMGSQFTVRIPLYGAQYPQKKGVEGLSGKRCWLAVRNASLCQFLETSLQRSGIVVTTYEGQEPTPEDVLITDEVVSKKWQGRAVVTFCRRHIGIPLEKAPGEWVHSVAAPHELPALLARIYLIEMESDDPANALPSTDKAVSDNDDMMILVVDDHPINRRLLADQLGSLGYQCKTANDGVDALNVLSKNHIDIVLSDVNMPNMDGYRLTQRIRQLGLTLPVIGVTANALAEEKQRCLESGMDSCLSKPVTLDVIKQTLTVYAERVRKSRDS”, the protein production entry is recorded as “failed”.

On to “MLEQGTISIHTENIFPIIKKSLYSDHQIFLRELVSNAVDAIQKLKMVSRAGEYAGVVDEPEIQLAIDKDKKTLSITDNGIGMTAEEVKKYINQVAFSSAEEFIHKYQGKSDQPIIGHFGLGFYSSFMVAQKVEIDTLSYQEGAQAVHWSCDGSPEFTLEESSRTTIGTTITLTLLPDEEEYLESARVKNLVKTYCDFMPVPIKLDGEVLNRQKAPWRESPSNLTKEDYLEFYRYLYPFQEEPLLWVHLNTDYPFIINGILYFPKMRPDVDVTKGQIKLFCNQVFVSDNCEEIIPQFLVPMRGVIDSTDIPLNVSRSALQGDRTVRKIGDYIAKKVGDRLKELYRDDREQYISAWKDLSTFVKFGVLNDEKFKKQVEDIIIFRSTVKWEQPAETPAVEVQSQEGDVWQDITPSPDSPTPGLPYTTLKEYLERNKERHENRVFYSTDEATQATYIELHKNQGLEVLFLDSFIDTHFINFLEQEYQDVKFTRVDSDLDNTLLEQDKAGEIVDPTTNKTKSEIIKELFEKSLNKPKVNIRTEALKSDDPQGTPPAIVLLPEFLRRMREMTAMMQQQNADFPEDHILLVNTAHPLIQNLVNLNQGAIIQGDGESTTNPLVNLICQHVYDLALMSQKGFDAEGMKSFVERSNDVLTKLTQQAKN”, for which the protein production result is reported as “failed”.

In the case of “MALCGRPARQRSSAGQRYLAVAPARCDHWSPPSVRRVPVGRVGFYPAPVINRDAGGRASMTSQRGFWDRMAERYAARPIKDVAAYEAMLADAAGRLSPSDRVLEIGCGTGGTAIRLAPGVAQWTATDLSPEMVRIASAKPAPPNLSFVVADADLSTGEPPYDAVCAFLILHLVDDIRTTLSAIRDWLKPGGLLLSKTYCIGDMNPALRWGVIPVLQRIGWVPPIKSLMSQQLRAAIAEAGFEIEASRTFGSNSHAHYIVARKPA”, the protein production entry was “failed”. With “MATLLGFSQTKFHHCGVWISTPPCSSSSTVVSMVGLNRTDSKKLRSDFLGQIGYEDRRQVRHSYCRSSLAVKMSWDGPLASVKLIIQGKNLELSEPIKQHVEEKVGKSVQKHSHLVREVDVRLSVRGGEFGKGPRIRRCEVTLFTKKHGVVRAEEDAETVYACIDLVSTIIQRKLRKIKEKDSDHGRHMKGFNRLKVREPVIEPVVEDVEDSTDSSVGEEEEEDDLIKEIVRTKTFEMPPLTVAEAVEQLELVSHDFYGFQNEETGEINIVYKRKEGGYGLIIPKKDGKAEKVEPLPTEQLNEHSFAE” the entry was “failed”; with “MDFVFDIDGTLCFDGMSLSKEIQGILERAQIDYGHRVTFATARSYRDTIGILGDKLSLSKIIGLNGATLHENGHLVDSYYLQSDFFSTIISYCHRHQIPYFVDEVFNYATYQASKIPFIAYVDPQKRGELLEVSKIEKPIKMVLYFGDQLGRADQMLAELNRFGLSSHFFHEFEKCLYINPIAVDKGKATKKLFGNRFIAFGNDKNDISMFDAAHYSVQVGDFDELTPYANLRVSRESVHEGITTLFEKYKGIT”, “failed”; with “SESICNSLNSKLEPTLENLENLDVSAFQAPEDLLDGCRIYLCGFSGRKLDKLRRLINSGGGVRFNQLNEDVTHVIVGDYDDELKQFWNKSAHRPHVVGAKWLLECFSKGYMLSEEPYIH”, “not failed”. Consider “MQSLHGNCLIAYARHKYILTMVNGEYRYFNGGDLVFADASQIRVDKCVENFVFVSRDTLSLFLPMLKEEALNLHAHKKVSSLLVHHCSRDIPVFQEVAQLSQNKNLRYAEMLRKRALIFALLSVFLEDEHFIPLLLNVLQPNMRTRVCTVINNNIAHEWTLARIASELLMSPSLLKKKLREEETSYSQLLTECRMQRALQLIVIHGFSIKRVAVSCGYHSVSYFIYVFRNYYGMTPTEYQERSAQRLSNRDSAASIVAQGNFYGTDRSAEGIRL”, for which the protein production result is “failed”.

Turning to “MQSPPHDPASALAIRNHYRQSQSRAARLRLLVDTGQELIQLPPEAMRKCVLQRACAFVAMDHGLLLEWGADNGVQTTARHGSKERLSTLETTADPLAIGPQWLERPGTHLPCVLLLPLRGADEGSFGTLVLANSVAISAPDGEDIESLQLLATLLAAHLENNRLLEALVARDRTMSQLVRQLFTAQEDERKRVAYDLHDGLAQTLAGLHQRLQGFAGRCPELPAQLDADLQAILKLAQHCVGEGRQLISGLRPAVLDDFGLWQAVDKEADRLREAGIIVQWTSQSLERLPSHLEIALFRIAQEGINNVLKHANASCVELALELSDGNVSLRLQDNGRGFITEKPINGTGVQKLGLVAMQERASLLGGRLTCVSRPGRGTRLRTIVPFTADKAIT”, the protein production entry was “failed”. In the case of “MKRWQMEWLLVSVALVWGANYTIGKYGVAYMSSIQFNSLRFLVASPVLLLITFLMERSLRIDRKDWLRLVAVGIVGTTMYQTMFMLSVKYTSATNASLLIAMSPIFTGILAVLHKQERFSMKVQIGSIVAFIGAAFVLLTGHTGGTTYEYAWLGNIIGLVAAIAWGWYPILAQPLITKYSAMRVTSWSTLIGIVPLVVYCLFNVNTLTWPVDMPSWGSLAYSIVFATIFGLAMWYVGISKIGSTKVMVYMYLVPLFAVIFAAVTIGEQINMMQLVGGLIIFIGLYVVKKGGIQKPALNLKKVS”, the protein production result is given as “failed”. With “MTKPILKKKERVDQLFSTDVKIIQNKEVFSYSIDSVLLSRFPKIPSRGLIVDLCSGNGAVGLFAATRTKAKIIEVELQERLADMAQRSIQLNDLTNQVSMIRDDLKNLLDHVPRSKVDLILCNPPYFKAAETSKKNLSEHYLLARHEIATNLEEICKISQQVLKTNGRLAMVHRPDRFLEIIDTFKKYKLAPKRLQFVYPKLGKDANMLLIETIKDGSPNGMKILPPLIVHKDNGDYTDNIHEIYFGKGHQAYMYVLKCADDSLYTGYTTDIKKRLATHNAGKGAKYTRARLPVELIYVEQFNHKNAAMSAEGKLKQKTRAQKLHYIEEHQHINLVSQF” the entry was “failed”; with “MDNLNVFANEDNQVNGLKRPPPSRVCPRCDSDNTKFCFYNNYSESQPRYFCKNCRRYWTHGGALRNIPVGGSCRKPKRLKVDQSSISEMVSVENQPINHQSFRQTQENNEFVRSFDASSSATVTAVPNHFGYLSELHGVTNLLPIQSFRTMDCLDFGDESFQQGYYDVGSNDLIDNPLINQSIGGYVDNLTSYCINQVEPKLQPRYEHES”, “failed”. Consider “MSRTMAEVNRLLKKTAGLINKDTESPFQGEFRVGVDLGTADIQTIVLDADGNPLAGFMDWANVVRDGVVVDFFGASQIVREQVRRASAKLGIQIEQVTTSFPPGTDSRISTNVIEAAGLEVAGVIDEPSSVAQLLQLDHAAVVDIGGGTTGTAIIEEGRVVRSMDDATGGRHITLTLAGHFGLPYEEAEEMKRTSKDLALCRLAAPVIAKMADIVHGHIAGHKVPAIYLTGGSCALPGFLEVFAAEFPGIEIVMPSHPLYLTPLAIATYSDVLQTREQRVGLEHHHHHH”, for which the protein production result was “failed”. With “KGMIRPRGLNQQRYVKEVLSNDINFGIGPAGTGKTYLAVACAVDALEREQIRRILLVRPAVEAGEKLGFLPGDLAQKIDPYLRPLYDALYEMLGFEYVAKLIEKQVIEVAPLAYMRGRTLNNSFIILDESQNTTVEQMKMFLTRIGFGSTAVITGDITQVDLPKGTRSGLTHVIDVLKDVPGISFTHFKPKDVVRHPLVQRIVEAYERFDDQLSDGPSGNNG” the entry was “not failed”.
